Measurements from paper PMC3986302 (International Journal of Nanomedicine, 2014).

Target: T1, full-length p63 (GST-fusion) (human, UniProt Q9H3D4 1-680)
T1 sequence (looked up): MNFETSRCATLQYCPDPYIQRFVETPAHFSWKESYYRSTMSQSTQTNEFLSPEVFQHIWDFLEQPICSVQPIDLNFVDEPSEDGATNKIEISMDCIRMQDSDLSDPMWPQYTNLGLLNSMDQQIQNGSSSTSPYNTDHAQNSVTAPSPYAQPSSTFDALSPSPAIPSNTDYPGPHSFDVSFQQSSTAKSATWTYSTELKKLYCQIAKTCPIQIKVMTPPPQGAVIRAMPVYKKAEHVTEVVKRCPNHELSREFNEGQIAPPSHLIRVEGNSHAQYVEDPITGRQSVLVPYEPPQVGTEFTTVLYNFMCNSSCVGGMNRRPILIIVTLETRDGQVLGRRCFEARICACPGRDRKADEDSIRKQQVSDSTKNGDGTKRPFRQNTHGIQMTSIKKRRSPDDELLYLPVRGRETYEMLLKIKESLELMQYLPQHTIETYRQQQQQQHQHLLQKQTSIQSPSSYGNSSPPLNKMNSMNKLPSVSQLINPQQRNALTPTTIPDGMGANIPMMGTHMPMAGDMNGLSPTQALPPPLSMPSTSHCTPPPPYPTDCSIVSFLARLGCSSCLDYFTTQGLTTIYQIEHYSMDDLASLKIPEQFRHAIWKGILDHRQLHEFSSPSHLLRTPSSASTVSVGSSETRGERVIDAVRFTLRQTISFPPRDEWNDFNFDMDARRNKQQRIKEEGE
Assay: atomic force spectroscopy

binding result: binds
Binder: LSTAADMQGVVTDGMASGLDKDYLKPDD [p28]
